Patent US20240293512A1 (HANMI PHARM, published 2024)
Bridge positions count the residues as written; N and C are the ends. Square brackets hold non-standard residues; d marks the D form. Ends that are not written are not given here. * marks the point of attachment. Acetyl(2-(4-imidazolyl)) = O=C(Cc1c[nH]cn1)*; Aib = CC(C)(N)C(=O)O

What follows are binders tested against T1, human GIP receptor (human, UniProt P48546 22-466) (assay: cell-based or functional assay).
T1 sequence (looked up): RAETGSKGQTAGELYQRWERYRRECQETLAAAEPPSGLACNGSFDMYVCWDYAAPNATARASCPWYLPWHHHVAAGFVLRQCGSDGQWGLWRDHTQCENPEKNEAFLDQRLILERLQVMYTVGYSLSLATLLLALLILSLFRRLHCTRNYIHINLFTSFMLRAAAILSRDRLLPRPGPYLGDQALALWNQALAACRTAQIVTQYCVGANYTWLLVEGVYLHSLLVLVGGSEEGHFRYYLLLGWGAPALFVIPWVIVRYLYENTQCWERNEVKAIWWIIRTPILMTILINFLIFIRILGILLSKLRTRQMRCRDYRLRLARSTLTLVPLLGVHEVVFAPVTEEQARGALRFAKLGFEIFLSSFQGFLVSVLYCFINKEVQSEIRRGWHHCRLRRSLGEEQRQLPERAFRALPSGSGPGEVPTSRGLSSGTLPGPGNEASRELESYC
For [Acetyl(2-(4-imidazolyl))][Aib]QGTFTSDYSIAMDEIHQKDFVNWLLNTC (bridge 16-20) [triple agonist of SEQ ID NO: 87], the “In vitro activity compared with native peptide (%) vs GIP (cAMP EC50)” value (“In vitro activity … (%) vs GIP (cAMP EC50)” for short) was under 0.1%.
With [Acetyl(2-(4-imidazolyl))][Aib]QGTFTSDYSIAMDEIHQKDFVNWLLNTKC (bridge 16-20) [triple agonist of SEQ ID NO: 94] the “In vitro activity … (%) vs GIP (cAMP EC50)” value was under 0.1%.
In the case of [Acetyl(2-(4-imidazolyl))][Aib]EGTFTSDYSIAMDEIHQKDFVDWLLAEC (bridge 16-20) [triple agonist of SEQ ID NO: 84], the “In vitro activity … (%) vs GIP (cAMP EC50)” value is reported as under 0.1%.
[Acetyl(2-(4-imidazolyl))][Aib]QGTFTSDYSKYLDEKRQKEFVNWLLAQC (bridge 16-20) [triple agonist of SEQ ID NO: 86] was tested, and the “In vitro activity … (%) vs GIP (cAMP EC50)” value was 0.2%.
Y[Aib]QGTFTSDYSKALDEKAAKDFVNWLLDQHPSSGQPPPSC (bridge 16-20) [triple agonist of SEQ ID NO: 102] was tested, and the “In vitro activity … (%) vs GIP (cAMP EC50)” value was 58%.
With H[Aib]QGTFTSDVSKYLDGQAAQEFVAWLLAGGGPSSGAPPPSC [triple agonist of SEQ ID NO: 10] the “In vitro activity … (%) vs GIP (cAMP EC50)” value was under 0.1%.
Y[Aib]QGTFTSDYSKYLDEKRAKEFVQWLLCHHPSSGQPPPS (bridge 16-20) [triple agonist of SEQ ID NO: 95] was tested, and the “In vitro activity … (%) vs GIP (cAMP EC50)” value was under 0.1%.
[Acetyl(2-(4-imidazolyl))]GQGTFTSDLSKQMDSEAQQLFIEWLKNGGPSSGAPPPSHG [triple agonist of SEQ ID NO: 16] was tested, and the “In vitro activity … (%) vs GIP (cAMP EC50)” value was under 0.1%.
In the case of [Acetyl(2-(4-imidazolyl))]GEGTFISDYSIQLDEIAVQDFVEWLLAQKPSSGAPPPSHG [triple agonist of SEQ ID NO: 13], the “In vitro activity … (%) vs GIP (cAMP EC50)” value is reported as under 0.1%.
With [Acetyl(2-(4-imidazolyl))]GEGTFTSDLSKYLDSRRQQLFVQWLKAGGPSSGAPPPSHG [triple agonist of SEQ ID NO: 11] the “In vitro activity … (%) vs GIP (cAMP EC50)” value was under 0.1%.
[Acetyl(2-(4-imidazolyl))]GEGTFISDLSKYMDEQAVQLFVEWLMAGGPSSGAPPPSHG [triple agonist of SEQ ID NO: 12] was tested, and the “In vitro activity … (%) vs GIP (cAMP EC50)” value was under 0.1%.
For H[Aib]QGTFTSDVSSYLDGQAQKEFIAWLVKGC [triple agonist of SEQ ID NO: 2], the “In vitro activity … (%) vs GIP (cAMP EC50)” value was under 0.1%.
In the case of [Acetyl(2-(4-imidazolyl))][Aib]QGTFTSDYSKYLDEKRQKEFVQWLLNTKC (bridge 16-20) [triple agonist of SEQ ID NO: 88], the “In vitro activity … (%) vs GIP (cAMP EC50)” value is reported as under 0.1%.

What follows are binders tested against human GLP-1 receptor (human, UniProt P43220 24-463) (assay: cell-based or functional assay).
[Acetyl(2-(4-imidazolyl))][Aib]QGTFTSDYSIAMDEIHQKDFVNWLLNTC (bridge 16-20) [triple agonist of SEQ ID NO: 87] was tested, and the “In vitro activity compared with native peptide (%) vs GLP-1 (cAMP EC50)” value (“In vitro activity … (%) vs GLP-1 (cAMP EC50)” for short) was 0.9%.
[Acetyl(2-(4-imidazolyl))][Aib]QGTFTSDYSIAMDEIHQKDFVNWLLNTKC (bridge 16-20) [triple agonist of SEQ ID NO: 94] was tested, and the “In vitro activity … (%) vs GLP-1 (cAMP EC50)” value was 0.5%.
For [Acetyl(2-(4-imidazolyl))][Aib]EGTFTSDYSIAMDEIHQKDFVDWLLAEC (bridge 16-20) [triple agonist of SEQ ID NO: 84], the “In vitro activity … (%) vs GLP-1 (cAMP EC50)” value was 4.2%.
With [Acetyl(2-(4-imidazolyl))][Aib]QGTFTSDYSKYLDEKRQKEFVNWLLAQC (bridge 16-20) [triple agonist of SEQ ID NO: 86] the “In vitro activity … (%) vs GLP-1 (cAMP EC50)” value was 28.4%.
Y[Aib]QGTFTSDYSKALDEKAAKDFVNWLLDQHPSSGQPPPSC (bridge 16-20) [triple agonist of SEQ ID NO: 102] was tested, and the “In vitro activity … (%) vs GLP-1 (cAMP EC50)” value was 23.3%.
With H[Aib]QGTFTSDVSKYLDGQAAQEFVAWLLAGGGPSSGAPPPSC [triple agonist of SEQ ID NO: 10] the “In vitro activity … (%) vs GLP-1 (cAMP EC50)” value was 46%.
For Y[Aib]QGTFTSDYSKYLDEKRAKEFVQWLLCHHPSSGQPPPS (bridge 16-20) [triple agonist of SEQ ID NO: 95], the “In vitro activity … (%) vs GLP-1 (cAMP EC50)” value was 2.1%.
With [Acetyl(2-(4-imidazolyl))]GQGTFTSDLSKQMDSEAQQLFIEWLKNGGPSSGAPPPSHG [triple agonist of SEQ ID NO: 16] the “In vitro activity … (%) vs GLP-1 (cAMP EC50)” value was 2.1%.
[Acetyl(2-(4-imidazolyl))]GEGTFISDYSIQLDEIAVQDFVEWLLAQKPSSGAPPPSHG [triple agonist of SEQ ID NO: 13] was tested, and the “In vitro activity … (%) vs GLP-1 (cAMP EC50)” value was under 0.1%.
[Acetyl(2-(4-imidazolyl))]GEGTFTSDLSKYLDSRRQQLFVQWLKAGGPSSGAPPPSHG [triple agonist of SEQ ID NO: 11] was tested, and the “In vitro activity … (%) vs GLP-1 (cAMP EC50)” value was 1.4%.
In the case of [Acetyl(2-(4-imidazolyl))]GEGTFISDLSKYMDEQAVQLFVEWLMAGGPSSGAPPPSHG [triple agonist of SEQ ID NO: 12], the “In vitro activity … (%) vs GLP-1 (cAMP EC50)” value is reported as 0.4%.
In the case of H[Aib]QGTFTSDVSSYLDGQAQKEFIAWLVKGC [triple agonist of SEQ ID NO: 2], the “In vitro activity … (%) vs GLP-1 (cAMP EC50)” value is reported as 5.9%.
With [Acetyl(2-(4-imidazolyl))][Aib]QGTFTSDYSKYLDEKRQKEFVQWLLNTKC (bridge 16-20) [triple agonist of SEQ ID NO: 88] the “In vitro activity … (%) vs GLP-1 (cAMP EC50)” value was 9.6%.

What follows are binders tested against human GCG receptor (human, UniProt P47871 26-477) (assay: cell-based or functional assay).
human GCG receptor, sequence (P47871 26-477): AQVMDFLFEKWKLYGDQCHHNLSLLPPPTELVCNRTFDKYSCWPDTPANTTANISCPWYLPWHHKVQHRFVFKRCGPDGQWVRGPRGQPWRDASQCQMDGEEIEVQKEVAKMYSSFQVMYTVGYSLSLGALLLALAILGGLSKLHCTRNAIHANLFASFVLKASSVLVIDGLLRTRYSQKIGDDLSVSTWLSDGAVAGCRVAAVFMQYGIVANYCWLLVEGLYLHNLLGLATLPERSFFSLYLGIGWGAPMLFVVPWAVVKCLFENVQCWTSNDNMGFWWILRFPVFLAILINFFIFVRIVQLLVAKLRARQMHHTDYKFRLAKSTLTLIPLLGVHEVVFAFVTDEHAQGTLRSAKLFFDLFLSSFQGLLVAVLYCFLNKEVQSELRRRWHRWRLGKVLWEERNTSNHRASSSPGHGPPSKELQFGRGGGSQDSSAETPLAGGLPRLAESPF
With [Acetyl(2-(4-imidazolyl))][Aib]QGTFTSDYSIAMDEIHQKDFVNWLLNTC (bridge 16-20) [triple agonist of SEQ ID NO: 87] the “In vitro activity compared with native peptide (%) vs Glucagon (cAMP EC50)” value (shortened to “In vitro activity … (%) vs Glucagon (cAMP EC50)”) was under 0.1%.
In the case of [Acetyl(2-(4-imidazolyl))][Aib]QGTFTSDYSIAMDEIHQKDFVNWLLNTKC (bridge 16-20) [triple agonist of SEQ ID NO: 94], the “In vitro activity … (%) vs Glucagon (cAMP EC50)” value is reported as under 0.1%.
With [Acetyl(2-(4-imidazolyl))][Aib]EGTFTSDYSIAMDEIHQKDFVDWLLAEC (bridge 16-20) [triple agonist of SEQ ID NO: 84] the “In vitro activity … (%) vs Glucagon (cAMP EC50)” value was under 0.1%.
For [Acetyl(2-(4-imidazolyl))][Aib]QGTFTSDYSKYLDEKRQKEFVNWLLAQC (bridge 16-20) [triple agonist of SEQ ID NO: 86], the “In vitro activity … (%) vs Glucagon (cAMP EC50)” value was 0.4%.
With Y[Aib]QGTFTSDYSKALDEKAAKDFVNWLLDQHPSSGQPPPSC (bridge 16-20) [triple agonist of SEQ ID NO: 102] the “In vitro activity … (%) vs Glucagon (cAMP EC50)” value was 29.5%.
In the case of H[Aib]QGTFTSDVSKYLDGQAAQEFVAWLLAGGGPSSGAPPPSC [triple agonist of SEQ ID NO: 10], the “In vitro activity … (%) vs Glucagon (cAMP EC50)” value is reported as under 0.1%.
Y[Aib]QGTFTSDYSKYLDEKRAKEFVQWLLCHHPSSGQPPPS (bridge 16-20) [triple agonist of SEQ ID NO: 95] was tested, and the “In vitro activity … (%) vs Glucagon (cAMP EC50)” value was 0.4%.
With [Acetyl(2-(4-imidazolyl))]GQGTFTSDLSKQMDSEAQQLFIEWLKNGGPSSGAPPPSHG [triple agonist of SEQ ID NO: 16] the “In vitro activity … (%) vs Glucagon (cAMP EC50)” value was under 0.1%.
[Acetyl(2-(4-imidazolyl))]GEGTFISDYSIQLDEIAVQDFVEWLLAQKPSSGAPPPSHG [triple agonist of SEQ ID NO: 13] was tested, and the “In vitro activity … (%) vs Glucagon (cAMP EC50)” value was under 0.1%.
In the case of [Acetyl(2-(4-imidazolyl))]GEGTFTSDLSKYLDSRRQQLFVQWLKAGGPSSGAPPPSHG [triple agonist of SEQ ID NO: 11], the “In vitro activity … (%) vs Glucagon (cAMP EC50)” value is reported as under 0.1%.
In the case of [Acetyl(2-(4-imidazolyl))]GEGTFISDLSKYMDEQAVQLFVEWLMAGGPSSGAPPPSHG [triple agonist of SEQ ID NO: 12], the “In vitro activity … (%) vs Glucagon (cAMP EC50)” value is reported as under 0.1%.
For H[Aib]QGTFTSDVSSYLDGQAQKEFIAWLVKGC [triple agonist of SEQ ID NO: 2], the “In vitro activity … (%) vs Glucagon (cAMP EC50)” value was under 0.1%.
For [Acetyl(2-(4-imidazolyl))][Aib]QGTFTSDYSKYLDEKRQKEFVQWLLNTKC (bridge 16-20) [triple agonist of SEQ ID NO: 88], the “In vitro activity … (%) vs Glucagon (cAMP EC50)” value was 0.3%.
